US20230235073A1

Tests used:
[1] = target: mouse CD36 recombinant protein (Sino Biological, reference 50422-M08H) (mouse) (UniProt Q08857); assay: ELISA, plate coated with mouse CD36, OD630, panel 'Coating: mouse CD36'
[2] = target: human CD36 recombinant protein (Sino Biological, reference 10752-H08H) (human) (UniProt P16671); assay: SPR Biacore T200, antibody captured on anti-mouse IgA, CD36 analyte, bivalent model
[3] = target: human CD36 on cells overexpressing human CD36 (human) (UniProt P16671); assay: FACS on cells overexpressing human CD36, % of Binding
[4] = target: human CD36 recombinant protein (Sino Biological, reference 10752-H08H) (human) (UniProt P16671); assay: SPR Biacore T200, antibody captured on anti-mouse IgA, CD36 analyte, 2-state model
[5] = target: human CD36 recombinant protein (Sino Biological, reference 10752-H08H) (human) (UniProt P16671); assay: SPR Biacore T200, antibody captured on anti-mouse IgA, CD36 analyte 3.3-333 nM, 1-to-1 model
[6] = target: human CD36 recombinant protein (Sino Biological, reference 10752-H08H) (human) (UniProt P16671); assay: ELISA, plate coated with human CD36, OD630, panel 'Coating: human CD36'

Chain of human CD36 recombinant protein (Sino Biological, reference 10752-H08H) (human) (P16671 30-439 limits assumed): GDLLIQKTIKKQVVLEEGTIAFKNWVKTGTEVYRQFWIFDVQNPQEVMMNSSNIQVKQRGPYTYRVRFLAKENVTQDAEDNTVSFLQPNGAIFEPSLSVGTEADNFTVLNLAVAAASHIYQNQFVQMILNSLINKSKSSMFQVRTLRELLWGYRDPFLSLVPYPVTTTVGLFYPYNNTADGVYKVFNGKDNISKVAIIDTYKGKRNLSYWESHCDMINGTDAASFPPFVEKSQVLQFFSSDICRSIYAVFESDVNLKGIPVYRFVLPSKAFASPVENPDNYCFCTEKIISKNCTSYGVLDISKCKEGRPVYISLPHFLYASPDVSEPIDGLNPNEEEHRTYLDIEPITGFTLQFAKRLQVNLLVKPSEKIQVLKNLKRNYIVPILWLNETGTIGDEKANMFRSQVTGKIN
Chain of human CD36 on cells overexpressing human CD36 (human) (P16671 2-472 limits assumed): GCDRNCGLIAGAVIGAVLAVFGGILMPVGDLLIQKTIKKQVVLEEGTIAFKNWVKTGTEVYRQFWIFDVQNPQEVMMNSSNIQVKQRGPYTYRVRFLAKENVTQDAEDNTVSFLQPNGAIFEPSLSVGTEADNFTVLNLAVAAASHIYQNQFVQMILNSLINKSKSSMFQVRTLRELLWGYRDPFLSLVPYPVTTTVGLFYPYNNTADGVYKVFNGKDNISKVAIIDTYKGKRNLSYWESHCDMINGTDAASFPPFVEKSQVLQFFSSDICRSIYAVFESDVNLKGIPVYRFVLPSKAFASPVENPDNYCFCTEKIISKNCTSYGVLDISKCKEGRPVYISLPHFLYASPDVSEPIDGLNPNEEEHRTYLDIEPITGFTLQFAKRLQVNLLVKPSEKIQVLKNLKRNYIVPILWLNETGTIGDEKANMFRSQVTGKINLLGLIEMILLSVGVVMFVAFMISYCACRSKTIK
Chain of mouse CD36 recombinant protein (Sino Biological, reference 50422-M08H) (mouse) (Q08857 30-439 limits assumed, stated change not applied): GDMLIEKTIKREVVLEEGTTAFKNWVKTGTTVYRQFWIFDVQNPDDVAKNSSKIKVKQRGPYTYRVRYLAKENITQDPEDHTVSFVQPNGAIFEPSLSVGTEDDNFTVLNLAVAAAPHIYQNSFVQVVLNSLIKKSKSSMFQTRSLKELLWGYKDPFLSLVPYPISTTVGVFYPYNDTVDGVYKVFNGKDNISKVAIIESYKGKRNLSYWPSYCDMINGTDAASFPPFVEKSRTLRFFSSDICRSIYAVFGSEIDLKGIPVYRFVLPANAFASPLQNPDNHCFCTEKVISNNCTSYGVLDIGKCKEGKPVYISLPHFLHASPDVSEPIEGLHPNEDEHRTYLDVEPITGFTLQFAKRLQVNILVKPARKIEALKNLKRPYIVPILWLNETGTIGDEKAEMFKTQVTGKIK

“commercial neutralizing monoclonal anti-CD36 antibody JC63.1 (CAYMAN, CAY-10009893-500)” was tested, and the EC50 (read off the curve) [1] was 1 nM, the KD1 [2] was 76.5 nM and the KD2 [2] was 956 nM. For the same substance, the ka1 [2] was 27200 M⁻¹ s⁻¹, the ka1 (second column so headed) [2] was 413 M⁻¹ s⁻¹ and the ka2 [2] was 5.5e-05 1/RUs. The kd1 [2] was 0.00206 s⁻¹, the kd2 [2] was 0.000399 s⁻¹ and the EC50 (read off the curve) [3] was 0.03 nM. The Kd [4] was 7.61 nM, the ka1 [4] was 86900 M⁻¹ s⁻¹ and the ka2 [4] was 0.000572 s⁻¹. For the same substance, the kd1 [4] was 0.0018 s⁻¹, the kd2 [4] was 0.000332 s⁻¹ and the Kd [5] was 4.71 nM. The koff [5] was 0.00196 s⁻¹, the kon [5] was 418000 M⁻¹ s⁻¹ and the EC50 (read off the curve) [6] was 1 to 2 nM.
